Reference: article doi:10.1101/2024.04.29.591313, “Discovery of a synthetic small molecule targeting the central regulator of Salmonella pathogenicity” (bioRxiv, 2024)

Molecular target: the molecule itself
Assay: SEC-MALS; Superdex 75 Increase 10/300 GL; HilD (100 μM) incubated with 1% (v/v) DMSO or C26 (100 µM) for 20 min at room temperature; SEC buffer (50 mM NaH2PO4, pH 7.0, 200 mM NaCl); 0.5 ml/min

B1: HilD (natural protein)
chain: MENVTFVSNSHQRPAADNLQKLKSLLTNTRQQIKSQTQQVTIKNLYVSSFTLVCFRSGKLTISNNHDTIYCDEPGMLVLKKEQVVNVTLEEVNGHMDFDILEIPTQRLGALYALIPNEQQTKMAVPTEKAQKIFYTPDFPARREVFEHLKTAFSCTKDTSKGCSNCNNKSCIENEELIPYFLLFLLTAFLRLPESYEIILSSAQITLKERVYNIISSSPSRQWKLTDVADHIFMSTSTLKRKLAEEGTSFSDIYLSARMNQAAKLLRIGNHNVNAVALKCGYDSTSYFIQCFKKYFKTTPSTFIKMANH
notes: HilD, transcriptional regulator of Salmonella enterica serovar Typhimurium; the hilD gene was cloned into pET-24a(+) with an N-terminal His6-SUMO fusion; Dimer by SEC-MALS; 9 (printed only as an image); also called HilDWT; recombinant HilD; source: E. coli C41(DE3), purified (Ni-NTA, SUMO protease cleavage, second Ni-NTA, SEC Superdex 75); not shown: His6, N-terminal, cleaved; SUMO, N-terminal, …
stoichiometry N: 2
